From publication PMC5045167, “STN1 OB Fold Mutation Alters DNA Binding and Affects Selective Aspects of CST Function”

Legend:
[1] = target: T1, CST(WT) (CTC1-STN1-TEN1) (human, UniProt Q2NKJ3;Q9H668;Q86WV5 1-1217;1-368;1-123); experiment: EMSA; 25 mM Tris pH 8.0, 1 mM DTT, 150 mM NaCl; EMSA 0.1 nM DNA, 30 min RT; filter binding 0.01 nM DNA, 18 h 4 C; crosslinking 20 nM CST, 2 nM DNA, UVA on ice; conditions: protein: recombinant; tags: N-terminal FLAG-CTC1, His-STN1; TEN1 untagged (Methods says all tags N-terminal); copies: 1;1;1; label: 32P
T1 sequence (Q2NKJ3 whole entry, chain 1 of 3): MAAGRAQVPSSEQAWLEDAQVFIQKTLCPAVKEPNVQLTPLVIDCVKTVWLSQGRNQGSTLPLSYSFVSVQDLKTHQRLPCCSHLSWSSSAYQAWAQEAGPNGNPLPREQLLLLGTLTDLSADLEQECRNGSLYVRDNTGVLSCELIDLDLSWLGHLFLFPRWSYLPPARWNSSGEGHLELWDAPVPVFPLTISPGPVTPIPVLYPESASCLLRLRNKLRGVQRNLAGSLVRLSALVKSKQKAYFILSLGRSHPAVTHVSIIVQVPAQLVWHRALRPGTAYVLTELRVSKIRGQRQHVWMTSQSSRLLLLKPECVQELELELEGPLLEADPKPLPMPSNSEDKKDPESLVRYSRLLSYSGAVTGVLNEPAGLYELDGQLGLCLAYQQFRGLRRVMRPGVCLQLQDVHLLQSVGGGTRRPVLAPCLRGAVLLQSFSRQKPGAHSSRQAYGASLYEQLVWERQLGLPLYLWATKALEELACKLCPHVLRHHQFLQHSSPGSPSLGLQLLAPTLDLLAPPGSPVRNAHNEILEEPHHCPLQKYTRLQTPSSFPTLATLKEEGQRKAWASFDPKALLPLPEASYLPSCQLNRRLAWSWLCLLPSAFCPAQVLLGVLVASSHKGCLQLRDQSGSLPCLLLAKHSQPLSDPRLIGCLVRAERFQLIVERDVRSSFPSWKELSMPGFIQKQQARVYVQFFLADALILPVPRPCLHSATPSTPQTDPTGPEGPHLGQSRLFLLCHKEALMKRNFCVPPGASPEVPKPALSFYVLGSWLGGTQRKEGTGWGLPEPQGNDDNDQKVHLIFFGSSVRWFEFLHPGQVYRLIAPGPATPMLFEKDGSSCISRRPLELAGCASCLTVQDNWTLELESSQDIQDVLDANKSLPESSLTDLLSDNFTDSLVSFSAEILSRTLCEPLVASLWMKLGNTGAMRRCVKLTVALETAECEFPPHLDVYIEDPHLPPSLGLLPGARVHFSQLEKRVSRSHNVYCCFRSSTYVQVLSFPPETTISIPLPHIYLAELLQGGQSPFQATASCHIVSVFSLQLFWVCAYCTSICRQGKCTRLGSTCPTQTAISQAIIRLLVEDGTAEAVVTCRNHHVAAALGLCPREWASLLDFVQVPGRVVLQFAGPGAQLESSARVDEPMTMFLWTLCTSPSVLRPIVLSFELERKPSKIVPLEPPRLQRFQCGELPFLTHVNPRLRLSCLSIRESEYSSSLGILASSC
T1 sequence (Q9H668 whole entry, chain 2 of 3): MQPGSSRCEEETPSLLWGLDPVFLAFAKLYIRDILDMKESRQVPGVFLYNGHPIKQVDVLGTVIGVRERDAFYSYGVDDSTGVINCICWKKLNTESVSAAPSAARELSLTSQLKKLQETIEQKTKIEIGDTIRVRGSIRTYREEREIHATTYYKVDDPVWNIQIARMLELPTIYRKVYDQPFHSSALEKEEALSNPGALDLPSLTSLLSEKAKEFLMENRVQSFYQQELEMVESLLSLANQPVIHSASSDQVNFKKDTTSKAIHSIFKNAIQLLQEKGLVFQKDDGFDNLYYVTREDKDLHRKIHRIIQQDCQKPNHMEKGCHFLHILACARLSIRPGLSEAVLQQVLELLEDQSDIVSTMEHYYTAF
T1 sequence (Q86WV5 whole entry, chain 3 of 3): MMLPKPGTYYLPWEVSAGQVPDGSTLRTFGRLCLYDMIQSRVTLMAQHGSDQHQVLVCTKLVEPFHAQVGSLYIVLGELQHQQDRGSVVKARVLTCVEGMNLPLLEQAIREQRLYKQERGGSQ

[2] = target: T2, CST(STN1-OBM) (human, UniProt Q2NKJ3;Q9H668;Q86WV5 1-1217;1-368;1-123, W89A;R139L;Y141A); experiment: EMSA; similar affinity to CST(WT); 25 mM Tris pH 8.0, 1 mM DTT, 150 mM NaCl; EMSA 0.1 nM DNA, 30 min RT; filter binding 0.01 nM DNA, 18 h 4 C; crosslinking 20 nM CST, 2 nM DNA, UVA on ice; conditions: protein: recombinant; tags: N-terminal FLAG-CTC1, His-STN1-OBM; TEN1 untagged; copies: 1;1;1; label: 32P
T2 sequence (Q2NKJ3 whole entry, chain 1 of 3): as the sequence (Q2NKJ3 whole entry, chain 1 of 3) above
T2 sequence (Q9H668 whole entry W89A/R139L/Y141A, chain 2 of 3): as the sequence (Q9H668 whole entry, chain 2 of 3) above, with W89A, R139L, Y141A counted along it
T2 sequence (Q86WV5 whole entry, chain 3 of 3): as the sequence (Q86WV5 whole entry, chain 3 of 3) above

[3] = target: T1, CST(WT) (CTC1-STN1-TEN1); experiment: UV crosslinking; CTC1 and (less efficiently) STN1 crosslinked; 25 mM Tris pH 8.0, 1 mM DTT, 150 mM NaCl; EMSA 0.1 nM DNA, 30 min RT; filter binding 0.01 nM DNA, 18 h 4 C; crosslinking 20 nM CST, 2 nM DNA, UVA on ice; conditions: protein: recombinant; tags: N-terminal FLAG-CTC1, His-STN1; TEN1 untagged (Methods says all tags N-terminal); copies: 1;1;1; label: 32P
[4] = target: T2, CST(STN1-OBM); experiment: EMSA; up to 20 nM CST; 25 mM Tris pH 8.0, 1 mM DTT, 150 mM NaCl; EMSA 0.1 nM DNA, 30 min RT; filter binding 0.01 nM DNA, 18 h 4 C; crosslinking 20 nM CST, 2 nM DNA, UVA on ice; conditions: protein: recombinant; tags: N-terminal FLAG-CTC1, His-STN1-OBM; TEN1 untagged; copies: 1;1;1; label: 32P
[5] = target: T1, CST(WT) (CTC1-STN1-TEN1); experiment: as above; conditions: protein: recombinant; tags: N-terminal FLAG-CTC1, His-STN1; TEN1 untagged (Methods says all tags N-terminal); copies: 1;1;1; label: 32P
[6] = target: T1, CST(WT) (CTC1-STN1-TEN1); experiment: filter binding; Kd,app measured, value only in Fig 6C; 25 mM Tris pH 8.0, 1 mM DTT, 150 mM NaCl; EMSA 0.1 nM DNA, 30 min RT; filter binding 0.01 nM DNA, 18 h 4 C; crosslinking 20 nM CST, 2 nM DNA, UVA on ice; conditions: protein: recombinant; tags: N-terminal FLAG-CTC1, His-STN1; TEN1 untagged (Methods says all tags N-terminal); copies: 1;1;1; label: 32P
[7] = target: T1, CST(WT) (CTC1-STN1-TEN1); experiment: UV crosslinking; CTC1, STN1 and TEN1 crosslinked; 25 mM Tris pH 8.0, 1 mM DTT, 150 mM NaCl; EMSA 0.1 nM DNA, 30 min RT; filter binding 0.01 nM DNA, 18 h 4 C; crosslinking 20 nM CST, 2 nM DNA, UVA on ice; conditions: protein: recombinant; tags: N-terminal FLAG-CTC1, His-STN1; TEN1 untagged (Methods says all tags N-terminal); copies: 1;1;1; label: 32P
[8] = target: T1, CST(WT) (CTC1-STN1-TEN1); experiment: UV crosslinking; only CTC1 reproducibly crosslinked; 25 mM Tris pH 8.0, 1 mM DTT, 150 mM NaCl; EMSA 0.1 nM DNA, 30 min RT; filter binding 0.01 nM DNA, 18 h 4 C; crosslinking 20 nM CST, 2 nM DNA, UVA on ice; conditions: protein: recombinant; tags: N-terminal FLAG-CTC1, His-STN1; TEN1 untagged (Methods says all tags N-terminal); copies: 1;1;1; label: 32P
[9] = target: T1, CST(WT) (CTC1-STN1-TEN1); experiment: UV crosslinking; CTC1 and STN1 crosslinked; 25 mM Tris pH 8.0, 1 mM DTT, 150 mM NaCl; EMSA 0.1 nM DNA, 30 min RT; filter binding 0.01 nM DNA, 18 h 4 C; crosslinking 20 nM CST, 2 nM DNA, UVA on ice; conditions: protein: recombinant; tags: N-terminal FLAG-CTC1, His-STN1; TEN1 untagged (Methods says all tags N-terminal); copies: 1;1;1; label: 32P

AGCGTATCCGTTCAGTTGAGCGTATCCGTTCAGTTGAGCGTATCCGTT (ssDNA) [NonTel-48]
binding result [1]: binds | binding result [2]: binds

GGTTAGGGTTAGGGTTAG (ssDNA, 4-thiothymidine at position 3 (third nt from 5' end)) [5'-s4T TelG-18]
binding result [3]: binds

AGCGTATCCGTTCAGTTG (ssDNA) [NonTel-18]
binding result [4]: no binding | binding result [5]: no binding

GGTTAGGGTTAGGGTTAG (ssDNA) [TelG-18]
binding result [6]: binds

GGTTAGGGTTAGGGTTAGGGTTAGGGTTAGGGTTAGGGTTAGGGTTAG (ssDNA) [TelG-48]
binding result [1]: binds | binding result [2]: binds

GGTTAGGGTTAGGGTTAGGGTTAGGGTTAGGGTTAGGGTTAGGGTTAG (ssDNA, 4-thiothymidine at position 46 (third nt from 3' end)) [3'-s4T TelG-48]
binding result [7]: binds

GGTTAGGGTTAGGGTTAGGGTTAGGGTTAGGGTTAGGGTTAGGGTTAG (ssDNA, 4-thiothymidine at position 3 (third nt from 5' end)) [5'-s4T TelG-48]
binding result [8]: binds

GGTTAGGGTTAGGGTTAG (ssDNA, 4-thiothymidine at position 16 (third nt from 3' end)) [3'-s4T TelG-18]
binding result [9]: binds

AGCGTATCCGTTCAGTTGAGCGTATCCGTTCAGTTG (ssDNA) [NonTel-36]
binding result [1]: binds
